Reference: patent publication US20230365929A1, “METHOD OF DIFFERENTIATION OF PLURIPOTENT STEM CELLS TO RETINAL PIGMENT EPITHELIUM CELLS” (R.P. SCHERER TECHNOLOGIES, LLC, priority 2022, published 2023)

Tested on: Human induced pluripotent stem cells (hiPSCs)
Assay: RPE-specific markers expression in hiPSCs differentiated into RPE cells (RTqPCR; FACS)
Assay type: cell-based
Method: Day 0: overall undifferentiated and tight hiPSC morphology was confirmed to be at close to 100% confluency. Otherwise, the cells were fed once more with 4 ml prewarmed iPS Brew medium and instead differentiation was initiate the next day. KSR medium (4 ml needed per 6-well), PD0325901 (PD)/SB431542 (SB)/dorsomorphin (DM) aliquots, as well as Activin A were prepared and/or prewarmed. After thawing and thoroughly mixing all reagents, […] (1:1000 from 1 mM stock), […] (1:2000 from 10 mM stock), […] (1:2000 from 0.5 mM stock) and […] (1:400 from 10 μg/ml stock) were added to 4 ml KSR medium per confluent hiPSC culture well, after vigorously agitating culture plates and completely soaking off iPS Brew medium.
Days 1 and 2: media was prepared as above and old medium replaced on culture wells by 4 ml fresh differentiation medium per well, following vigorous agitation and complete media aspiration.
Day 3: KSR medium with Activin A only was prepared and old medium was replaced on culture wells by 4 ml fresh ActA-only differentiation medium per well, following vigorous agitation and complete media aspiration.
Day 4: fresh KSR+ActA differentiation medium was prepared and feed with 8 ml per well.
Second week: cells were fed daily with 4 ml per 6-well and 8 ml over the weekend.
Third and fourth weeks: no more small molecules were applied during the third and fourth weeks of differentiation. Only Activin A was added to basal media (either KSR or B27 medium) Activin A was added daily to prewarmed basal media, and old medium replaced on cells (1:100 thoroughly mixed).
Day 29 (week 5): newly coated dishes were prepared by coating 12-well (5 μl) or 6-well format (12 μl iM) with 4 x iMatrix-511 in PBS for 1 h at 37° C. KSR medium was prepared and prewarmed for splitting procedure. Differentiated cells were washed with PBS once (4 ml) or twice (2×2 ml), then 1 ml prewarmed TrypLE Se-lec was added. Cells were dissociated using a 1 ml pipette by pipetting up and down several times and results were checked under the microscope. Cell suspension was transferred to 15 ml tube and centrifuged at 300 g for 2 min. A portion of the cells was transferred into a 1.5 ml tube for downstream FACS and/or RT-qPCR analysis. Cells were resuspended in an appropriate amount of KSR medium and cell titer was determined using a Neubauer chamber. 400,000 cells per cm^2 were plated out in 6-well (with 4 ml KSR medium with or without Activin A24) or 12-well format (2 ml medium).
Samples to be analyzed by RT-qPCR were cells directly lysed from culture wells using RA1 buffer from the RNA isolation kit. […] RNA concentration was measured on NanoDrop monitoring A260/280 and A260/230 ratios. […]

B1: Activin A (protein, UniProt P08476 311-426, looked up)
Inhibin beta A chain: GLECDGKVNICCKKQFFVSFKDIGWNDWIIAPSGYHANYCEGECPSHIAGTSGSSLSFHSTVINHYRMRGHSPFANLKSCCVPTKLRPMSMLYYDDGQNIIKKDIQNMIVEECGCS
modifications: homodimer
notes: member of the TGFβ family of proteins; disulfide-linked homodimer (two beta-A chains)
RPE gene expression (Activin A treatment initiated after signaling inhibition (PSD then A) vs standard simultaneous protocol, FIG. 6): reduced RPE gene expression
induction of RPE cell fate (RTqPCR (OTX2, MITF, PMEL), complete withdrawal of the three small molecules, FIG. 5): insufficient for inducing RPE cell fate
induction of the RPE phenotype (RTqPCR of RPE-specific markers, non-treated vs Activin A only vs PSD+A, FIG. 2C): not sufficient to induce the RPE phenotype
RPE induction (titration of Activin A: concentration below 20 ng/ml or complete withdrawal, FIG. 7): inferior RPE induction
